Source: US20240384250A1, “FIBROBLAST GROWTH FACTOR 23 MODULATING COMPOUNDS” (THE UAB RESEARCH FOUNDATION, priority 2021, published 2024)
Entries after “also recorded” stand apart in the source; their conditions may differ. Like-named read-outs stand apart in the source and are kept apart here.

T1: FGF21 (Homo sapiens, UniProt Q9NSA1)
T1 construct: purchased R&D Systems 2539FG025/CF
T1 sequence (Q9NSA1 29-209): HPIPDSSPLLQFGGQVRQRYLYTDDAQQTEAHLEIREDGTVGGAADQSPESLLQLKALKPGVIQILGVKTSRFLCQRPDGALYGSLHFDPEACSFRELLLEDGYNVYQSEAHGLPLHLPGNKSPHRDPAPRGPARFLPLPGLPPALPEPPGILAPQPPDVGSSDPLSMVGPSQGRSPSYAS

T2: FGF23 (Homo sapiens, UniProt Q9GZV9)
T2 construct: purchased R&D Systems 2604FG025/CF (human) or 2629FG025/CF (mouse)
T2 sequence (Q9GZV9 25-251): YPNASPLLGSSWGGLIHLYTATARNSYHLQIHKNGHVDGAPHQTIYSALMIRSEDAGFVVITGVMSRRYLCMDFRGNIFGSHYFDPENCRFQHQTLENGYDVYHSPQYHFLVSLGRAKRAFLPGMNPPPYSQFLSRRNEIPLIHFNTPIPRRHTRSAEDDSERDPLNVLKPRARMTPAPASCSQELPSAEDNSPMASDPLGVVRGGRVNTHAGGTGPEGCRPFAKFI

T3: FGFR4 (Homo sapiens, UniProt P22455)
T3 construct: Fc-FGFR4 protein (human ectodomain) was immobilized; purchased R&D Systems 685FR050
T3 sequence (P22455 22-369 limits assumed): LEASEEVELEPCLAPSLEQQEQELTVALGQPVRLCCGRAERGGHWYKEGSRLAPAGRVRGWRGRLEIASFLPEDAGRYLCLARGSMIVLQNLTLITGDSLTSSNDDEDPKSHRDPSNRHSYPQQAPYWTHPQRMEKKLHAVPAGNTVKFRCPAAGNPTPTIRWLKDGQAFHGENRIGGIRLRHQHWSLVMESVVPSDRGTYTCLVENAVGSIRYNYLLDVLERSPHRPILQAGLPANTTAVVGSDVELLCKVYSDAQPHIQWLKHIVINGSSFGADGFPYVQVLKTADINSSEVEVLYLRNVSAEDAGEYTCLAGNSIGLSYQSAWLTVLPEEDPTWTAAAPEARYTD


Columns and labels:
[1] = molecular target: T4, FGF23 binding to FGFR2c (Homo sapiens, UniProt P21802); assay: Pull-down of FGF23 with Fc-FGFR on protein A/G beads with sKL, heparin or PBS; details: with heparin, or alone
T4 construct: Fc-coupled FGFR ectodomains were immobilized on protein A/G beads; purchased R&D Systems 2604FG025/CF or 2629FG025/CF; 712FR050
Description: (§1) To study the interaction between Fc-tagged FGFR isoforms (Fc-FGFR), FGF isoforms, and sKL, immunoprecipitation studies were conducted. Protein A beads (6501, BioVision) and protein G beads (6511, BioVision) were used at 25 μl of a 50% stock slurry per sample in a total bead volume of 50 μl. Beads were washed 5× in activity buffer (50 mM Tris [pH 7.4], 200 mM NaCl, 0.01% Tween 20). Bead spin-down assays were all performed for 2 minutes at 5000 g. Beads were resuspended in 1 ml of activity buffer in a 1.5-ml snap cap tube. One microgram of Fc-FGFR1 to 4 was incubated with the beads for 1 hour on a bead rotator. Control samples were incubated with 2 μg of anti-FGF antibody instead of Fc-FGFR. Beads were then pelleted at 5000 g for 2 minutes and washed 5× with activity buffer. Beads were resuspended and incubated with different combinations of 500 ng of FGF, 1 μg of sKL, 1.6 United States Pharmacopeia (USP) units of heparin, or phosphate-buffered saline (PBS). Beads were incubated for 1 hour on a tube rotator, and beads were pelleted and washed as before. One hundred microliters of 1× Laemmli sample buffer (1610737, Bio-Rad) with 1.42 M 2-mercaptoethanol was added, and samples were boiled for 5 minutes. Samples were analyzed using SDS-PAGE and Western blotting.
(§2) The sample (20 μl) was loaded onto Mini-PROTEAN TGX Precast Gel 4-20% for experiments with <9 samples (4568094, Bio-Rad) or Criterion TGX Precast Gel 4-20% (5678094, Bio-Rad) for experiments with >9 samples. Gels were run in 1× Tris/Glycine/SDS buffer (1610732, Bio-Rad) at 150 V and stopped when the sample dye reached the end of the gel. Gels were removed and electrotransferred via a semi-dry cassette (1703940, Bio-Rad) in I× Tris/Glycine buffer (1610734, Bio-Rad) with 20% methanol. Gels were transferred onto polyvinylidene diflouride membranes (IPVH00010, Millipore) at 20 V for 1 hour. Membranes were then blocked in 5% dried milk with 0.5% Tween 20 diluted in Tris-buffered saline (TBST; pH 7.5) for 1 hour and probed with antibodies against specific antigens at 1:1000 in TBST with 5% dried milk. Blots were washed 3× for 5 minutes in TBST and probed with HRP-coupled secondary antibodies against specific species at 1:10,000 in TBST with 5% dried milk. Membranes were imaged on the SRX-101A X-ray film developer (Konica Minolta).

[2] = molecular target: T5, FGF19 (Homo sapiens, UniProt O95750); assay: Co-immunoprecipitation of FGF with FLAG-tagged sKL on anti-FLAG beads; format: binding
T5 construct: purchased R&D Systems 969FG025/CF
Description: (§3) To study the interaction between FLAG-tagged sKL and different FGF isoforms, co-immunoprecipitation studies were conducted. FLAG beads (A2220, Sigma-Aldrich) were used at 50 ul of 50% stock slurry per sample. Beads were washed 5× with activity buffer (50 mM Tris [pH 7.4], 200 mM NaCl, 0.01% Tween 20, Sigma-Aldrich). Bead spin-down assays were all performed for 2 minutes at 5000 g. Fifty microliters of a 50% slurry of beads per sample was resuspended in 1 ml of activity buffer in a 1.5-ml snap cap tube. One microgram of FLAG-tagged sKL or Carboxy-terminal bacterial alkaline phosphatase (BAPC; P7457, Sigma-Aldrich) was incubated with the beads for 1 hour on a bead rotator. Beads were then pelleted at 5000 g for 2 minutes and washed 5× with activity buffer. Beads were resuspended in 1 ml of activity buffer and samples with 500 ng of FGF. Beads were incubated for 1 hour on a tube rotator, and beads were pelleted and washed as before. One hundred microliters of I× Laemmli sample buffer (1610737, Bio-Rad) with 1.42 M 2-mercaptoethanol was added, and samples were boiled for 5 minutes and analyzed using sodium dodecylsulfate-polyacrylamide gel electrophoresis (SDS-PAGE) and Western blotting, as described below herein.
as §2

[3] = molecular target: T1, FGF21; assay: as above; format: binding
Description: as §3, §2

[4] = molecular target: T2, FGF23; assay: as above; format: binding; details: absence of FGFR
Description: as §3, §2

[5] = molecular target: T3, FGFR4; assay: Pull-down of FLAG-sKL with Fc-tagged FGFR on protein A/G beads, absence of FGF23; format: binding; details: listed as FLAG-sKL
Description: as §1, §2

T5 sequence (O95750 25-216): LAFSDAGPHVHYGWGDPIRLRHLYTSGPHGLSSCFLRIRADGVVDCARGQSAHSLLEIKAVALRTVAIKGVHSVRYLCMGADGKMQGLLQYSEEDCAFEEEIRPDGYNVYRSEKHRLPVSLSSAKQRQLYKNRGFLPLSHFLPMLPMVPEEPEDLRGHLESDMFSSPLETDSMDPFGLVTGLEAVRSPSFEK
T4 sequence (P21802 22-377 limits assumed): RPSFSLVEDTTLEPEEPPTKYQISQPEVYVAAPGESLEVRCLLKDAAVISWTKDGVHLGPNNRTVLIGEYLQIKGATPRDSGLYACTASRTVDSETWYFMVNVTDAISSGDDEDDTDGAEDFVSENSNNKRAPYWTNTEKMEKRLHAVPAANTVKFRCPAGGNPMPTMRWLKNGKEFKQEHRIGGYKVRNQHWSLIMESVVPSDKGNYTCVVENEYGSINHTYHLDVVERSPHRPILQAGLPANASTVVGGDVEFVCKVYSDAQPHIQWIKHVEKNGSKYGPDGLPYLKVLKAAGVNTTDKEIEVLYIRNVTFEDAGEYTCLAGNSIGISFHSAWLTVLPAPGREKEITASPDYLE

FGF23 co-precipitation with Fc-FGFR2c [1]	FGF19 co-precipitation with immobilized FLAG-sKL [2]	FGF19 co-precipitation with immobilized FLAG-sKL ([2]; listed as FLAG-sKL)	FGF21 co-precipitation with immobilized FLAG-sKL [3]	FGF21 co-precipitation with immobilized FLAG-sKL ([3]; listed as FLAG-sKL)	FGF23 co-precipitation with immobilized FLAG-sKL ([4]; listed as FLAG-sKL)	FGF23 co-precipitation with immobilized FLAG-sKL ([4]; listed as FLAG-tagged sKL)	Molecule	co-precipitation of FLAG-sKL with FGFR4 [5]
no FGF23 binding was detected							FGF23: recombinant fibroblast growth factor 23 protein from R&D Systems (protein) YPDTSPLLGSNWGSLTHLYTATARTSYHLQIHRDGHVDGTPHQTIYSALMITSEDAGSVVITGAMTRRFLCMDLHGNIFGSLHFSPENCKFRQWTLENGYDVYLSQKHHYLVSLGRAKRIFQPGTNPPPFSQFLARRNEVPLLHFYTVRPRRHTRSAEDPPERDPLNVLKPRPRATPVPVSCSRELPSAEEGGPAASDPLGVLRRGRGDARGGAGGADRCRPFPRFV	
	did not bind	does not binds FGF19	did not bind	does not binds FGF21	bound FGF23	FGF23 could be co-precipitated	sKL: recombinant soluble α-klotho ectodomain, mouse aa 35-982 and human aa 34-981, FLAG- or Strep/His-tagged, purified from HEK293 cells (protein, left off: small tags and cut ends, recombinant soluble α-klotho ectodomain, mouse aa 35-982 and human aa 34-981, FLAG- or Strep/His-tagged, purified from HEK293 cells) EPGDGAQTWARFSRPPAPEAAGLFQGTFPDGFLWAVGSAAYQTEGGWQQHGKGASIWDTFTHHPLAPPGDSRNASLPLGAPSPLQPATGDVASDSYNNVFRDTEALRELGVTHYRFSISWARVLPNGSAGVPNREGLRYYRRLLERLRELGVQPVVTLYHWDLPQRLQDAYGGWANRALADHFRDYAELCFRHFGGQVKYWITIDNPYVVAWHGYATGRLAPGIRGSPRLGYLVAHNLLLAHAKVWHLYNTSFRPTQGGQVSIALSSHWINPRRMTDHSIKECQKSLDFVLGWFAKPVFIDGDYPESMKNNLSSILPDFTESEKKFIKGTADFFALCFGPTLSFQLLDPHMKFRQLESPNLRQLLSWIDLEFNHPQIFIVENGWFVSGTTKRDDAKYMYYLKKFIMETLKAIKLDGVDVIGYTAWSLMDGFEWHRGYSIRRGLFYVDFLSQDKMLLPKSSALFYQKLIEKNGFPPLPENQPLEGTFPCDFAWGVVDNYIQVDTTLSQFTDLNVYLWDVHHSKRLIKVDGVVTKKRKSYCVDFAAIQPQIALLQEMHVTHFRFSLDWALILPLGNQSQVNHTILQYYRCMASELVRVNITPVVALWQPMAPNQGLPRLLARQGAWENPYTALAFAEYARLCFQELGHHVKLWITMNEPYTRNMTYSAGHNLLKAHALAWHVYNEKFRHAQNGKISIALQADWIEPACPFSQKDKEVAERVLEFDIGWLAEPIFGSGDYPWVMRDWLNQRNNFLLPYFTEDEKKLIQGTFDFLALSHYTTILVDSEKEDPIKYNDYLEVQEMTDITWLNSPSQVAVVPWGLRKVLNWLKFKYGDLPMYIISNGIDDGLHAEDDQLRVYYMQNYINEALKAHILDGINLCGYFAYSFNDRTAPRFGLYRYAADQFEPKASMKHYRKIIDSNGFPGPETLERFCPEEFTVCTECSFFHTRKS	to a lower extent with FGFR4; also recorded: bound to FGFR4 and to a lower extent to FGFR4
